According to the RNAGym collection of RNA variant scans (doi:10.1093/molbev/msab373):

B1: Azoarcus group I ribozyme (parent)
chain: GUGCCUUGCGCCGGGAAACCACGCAAGGGAUGGUGUCAAAUUCGGCGAAACCUAAGCGCCCGCCCGGGCGUAUGGCAACGCCGAGCCAAGCUUCGGCGCCUGCGCCGAUGAAGGUGUAGAGACUAGACGGCACCCACCUAAGGCAAACGCUAUGGUGAAGGCAUAGUCCAGGGAGUGGCGAAAGUCACACAAACCGG

Variants of: B1
Test: reverse-splicing fitness (ratio to wild type); higher = more active; in vitro selection; Mg2+ level not given
How it was run: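 An in vitro group I ribozyme library with randomized positions was T7-transcribed and gel-purified. In triplicate, 10 pmol RNA in EPPS pH 7.5 was reacted with 50 pmoles of a 30-nt RNA substrate for 1 h at 37 °C across several added MgCl2 levels (1–48 mM), then stopped with EDTA. Products were reverse transcribed from a substrate-complementary primer, PCR-amplified and sequenced (HiSeq 4000). Fitness is a variant's read proportion after selection over that before, normalised to wild type.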
In the case of C82A A120C A145C C150G U176A, the reverse-splicing fitness is reported as 0.0063.
For C82A A120C A145C C150G U176C, the reverse-splicing fitness was 0.0119.
In the case of C82A A120C A145C U176A, the reverse-splicing fitness is reported as 0.0359.
For C82A A120C A145C U176G, the reverse-splicing fitness was 0.00935.
With C82A A120C A145C U176C the reverse-splicing fitness was 0.0514.
Variant C82A A120C A145G C150U C169A U176G has a reverse-splicing fitness of 0.00774.
Work on C82A A120C A145G C150U C169A U176A yielded a reverse-splicing fitness of 0.0169.
Work on C82A A120C A145G C150U C169A U176C yielded a reverse-splicing fitness of 0.0184.
C82A A120C A145C C150U C169U U176A gave a reverse-splicing fitness of 0.0127.
C82A A120C A145C C150U C169U U176C showed a reverse-splicing fitness of 0.00988.
For C82A A120C A145C C150U C169U U176G, the reverse-splicing fitness was 0.00452.
C82A A120C A145U C150U C169G U176G showed a reverse-splicing fitness of 0.00507.
For C82A A120C A145U C150U C169G U176A, the reverse-splicing fitness was 0.0129.
Variant C82A A120C A145U C150U C169G U176C has a reverse-splicing fitness of 0.0198.
With C82A A120C A145C C150U the reverse-splicing fitness was 0.035.
For C82A A120C A145G C150A C169A U176G, the reverse-splicing fitness was 0.00876.
With C82A A120C A145G C150A C169A U176A the reverse-splicing fitness was 0.0224.
For C82A A120C A145G C150A C169A U176C, the reverse-splicing fitness was 0.0248.
Work on C82A A120C A145U C169A U176C yielded a reverse-splicing fitness of 0.0124.
Work on C82A A120C A145U C169A U176G yielded a reverse-splicing fitness of 0.00493.
C82A A120C A145U C169A U176A showed a reverse-splicing fitness of 0.0129.
For C82A A120C A145U C150A, the reverse-splicing fitness was 0.0195.
With C82A A120C A145U C150U the reverse-splicing fitness was 0.086.
Variant C82A A120C A145U C150G has a reverse-splicing fitness of 0.0161.
For C82A A120C A145C C150G C169U U176A, the reverse-splicing fitness was 0.00681.
For C82A A120C A145C C150G C169U U176C, the reverse-splicing fitness was 0.0105.
C82A A120C A145C C150G C169U U176G gave a reverse-splicing fitness of 0.00498.
C82A A120C A145U C150U C169U U176C showed a reverse-splicing fitness of 0.0137.
C82A A120C A145U C150U C169U U176G gave a reverse-splicing fitness of 0.00474.
In the case of C82A A120C A145U C150U C169U U176A, the reverse-splicing fitness is reported as 0.0145.
Work on C82A A120C A145U C150G C169U U176C yielded a reverse-splicing fitness of 0.00999.
In the case of C82A A120C A145U C150G C169U U176A, the reverse-splicing fitness is reported as 0.00709.
Work on C82A A120C A145U C150G C169U U176G yielded a reverse-splicing fitness of 0.00519.
C82A A120C A145C C150U U176A gave a reverse-splicing fitness of 0.0172.
With C82A A120C A145C C150U U176C the reverse-splicing fitness was 0.0227.
Variant C82A A120C A145C C150U U176G has a reverse-splicing fitness of 0.00635.
For C82A A120C A145G C150G C169G U176G, the reverse-splicing fitness was 0.00719.
C82A A120C A145G C150G C169G U176C gave a reverse-splicing fitness of 0.0127.
Work on C82A A120C A145G C150G C169G U176A yielded a reverse-splicing fitness of 0.013.
Work on C82A A120C A145U C150G C169G U176A yielded a reverse-splicing fitness of 0.00819.
Work on C82A A120C A145U C150G C169G U176C yielded a reverse-splicing fitness of 0.00545.
Variant C82A A120C A145U C150G C169G U176G has a reverse-splicing fitness of 0.00467.
For C82A A120C A145U C150A C169A U176C, the reverse-splicing fitness was 0.0156.
In the case of C82A A120C A145U C150A C169A U176G, the reverse-splicing fitness is reported as 0.00601.
With C82A A120C A145U C150A C169A U176A the reverse-splicing fitness was 0.0198.
With C82A A120C A145U C150G C169G the reverse-splicing fitness was 0.00692.
In the case of C82A A120C A145U C150G C169A, the reverse-splicing fitness is reported as 0.0101.
C82A A120C A145U C150G C169U showed a reverse-splicing fitness of 0.0114.
For C82A A120C A145G C150A, the reverse-splicing fitness was 0.0245.
For C82A A120C A145G C150G, the reverse-splicing fitness was 0.0213.
In the case of C82A A120C A145G C150U, the reverse-splicing fitness is reported as 0.107.
C82A A120C A145G C150A C169G U176C gave a reverse-splicing fitness of 0.0333.
Variant C82A A120C A145G C150A C169G U176G has a reverse-splicing fitness of 0.00638.
In the case of C82A A120C A145G C150A C169G U176A, the reverse-splicing fitness is reported as 0.0191.
Variant C82A A120C A145U C150A C169G U176A has a reverse-splicing fitness of 0.0165.
With C82A A120C A145U C150A C169G U176G the reverse-splicing fitness was 0.00546.
With C82A A120C A145U C150A C169G U176C the reverse-splicing fitness was 0.0221.
Variant C82A A120C A145U C169G U176G has a reverse-splicing fitness of 0.00482.
Variant C82A A120C A145U C169G U176C has a reverse-splicing fitness of 0.0191.
C82A A120C A145U C169G U176A showed a reverse-splicing fitness of 0.0152.
C82A A120C A145U C150U C169A gave a reverse-splicing fitness of 0.00998.
Variant C82A A120C A145U C150U C169G has a reverse-splicing fitness of 0.0103.
In the case of C82A A120C A145U C150U C169U, the reverse-splicing fitness is reported as 0.0159.
Work on C82A A120C A145C C150G C169G U176G yielded a reverse-splicing fitness of 0.00575.
For C82A A120C A145C C150G C169G U176C, the reverse-splicing fitness was 0.00971.
With C82A A120C A145C C150G C169G U176A the reverse-splicing fitness was 0.00969.
C82A A120C A145C C150U C169G gave a reverse-splicing fitness of 0.00856.
C82A A120C A145C C150U C169U gave a reverse-splicing fitness of 0.0118.
For C82A A120C A145C C150U C169A, the reverse-splicing fitness was 0.00982.
For C82A A120C A145G C150G C169U U176A, the reverse-splicing fitness was 0.0135.
Variant C82A A120C A145G C150G C169U U176C has a reverse-splicing fitness of 0.015.
In the case of C82A A120C A145G C150G C169U U176G, the reverse-splicing fitness is reported as 0.00779.
Variant C82A A120C A145G C169U U176G has a reverse-splicing fitness of 0.00469.
In the case of C82A A120C A145G C169U U176C, the reverse-splicing fitness is reported as 0.0162.
In the case of C82A A120C A145G C169U U176A, the reverse-splicing fitness is reported as 0.0173.
C82A A120C A145C C150U C169G U176A showed a reverse-splicing fitness of 0.0287.
Variant C82A A120C A145C C150U C169G U176C has a reverse-splicing fitness of 0.0186.
In the case of C82A A120C A145C C150U C169G U176G, the reverse-splicing fitness is reported as 0.00542.
For C82A A120C A145U C150U C169A U176G, the reverse-splicing fitness was 0.00539.
With C82A A120C A145U C150U C169A U176C the reverse-splicing fitness was 0.0134.
Variant C82A A120C A145U C150U C169A U176A has a reverse-splicing fitness of 0.0178.
Variant C82A A120C A145G C150A C169G has a reverse-splicing fitness of 0.00977.
C82A A120C A145G C150A C169U gave a reverse-splicing fitness of 0.0123.
In the case of C82A A120C A145G C150A C169A, the reverse-splicing fitness is reported as 0.0111.
